Our source for the amount pulled down with SNAP25 per half brain and fold increase of the interaction upon epi stimulation against the basal state values is paper doi:10.1101/2020.04.29.065136.

For experiment [1], the target named is SNAP25 (mouse (endogenous in mouse brain synaptosomes)) (UniProt P60879). The experiment is described as follows: co-IP.
The target is the same in experiment [2]. The experiment in a line: affinity purification with mass spectrometry.

UniProt P60879, sequence (P60879 whole entry): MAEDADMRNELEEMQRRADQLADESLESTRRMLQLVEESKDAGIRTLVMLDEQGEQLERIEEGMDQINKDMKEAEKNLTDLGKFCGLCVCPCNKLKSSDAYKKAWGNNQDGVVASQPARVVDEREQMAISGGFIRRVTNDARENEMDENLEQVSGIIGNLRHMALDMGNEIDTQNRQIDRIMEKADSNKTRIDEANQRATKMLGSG

In turn, “Gβγ (from UniProt P62874 1-340; P63216 1-75) (complex)” registered an amount pulled down with SNAP25 per half brain in experiment [1] of 1 µg.

With “Gβ1 (from UniProt P62874 1-340) (natural protein)”, the fold increase of the interaction upon epi stimulation against the basal state in experiment [2] was 10 fold.
